The text below walks through data of the supplement of paper PMC10567573.

B1: BTBD1 (parent)
chain: TSAEIELPDVEPAAFLALLRFLYS
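Also: lentivirally expressed fusions sorted by FACS into six bins by GFP to DsRed ratio, PSI derived from sequencing read proportions per bin multiplied by bin number.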

In the series the parent is B1. Briefly: protein stability index of a GFP-peptide fusion (GPS, HEK-293T) (PSI 1-6); higher = more stable. Conditions: c terminus: a fixed tail appended.
For TSAEIELPDVEPAAFLALDRFLYS [L19D], the protein stability index came to 3.54.
The value for TSAEIELPDVEPAAFLALPRFLYS [L19P] was 2.11; that for TSAEIELPDVEPAAFLALQRFLYS [L19Q] was 1.51; that for TSAEIELPDVEPAAFLALARFLYS [L19A] was 1.9.
Next, TSAEIELPDVEPAAFLALSRFLYS [L19S]: 1.69.
Next, TSAEIELPDVEPAFFLALLRFLYS [A14F]: 1.91; TSAEIELPDVEPAPFLALLRFLYS [A14P]: 2.05; TSAEIELPDVEPANFLALLRFLYS [A14N]: 1.92.
Turning to TSAEIELPDVEPAQFLALLRFLYS [A14Q], the protein stability index stood at 1.77.
TSAEIELPDVEPAHFLALLRFLYS [A14H]: the protein stability index stood at 2.04.
Next, TSAEIELPDVEPAKFLALLRFLYS [A14K]: 1.63; TSAEIELPDVEPASFLALLRFLYS [A14S]: 2.41.
The value for TSAEIELPDVEPAEFLALLRFLYS [A14E] was 1.66; that for TSAEIELPDVEPAGFLALLRFLYS [A14G] was 2.04; that for TSAEIELPDVEPARFLALLRFLYS [A14R] was 1.87.
Next, TSAEIELPDVEPAAFLAILRFLYS [L18I]: 2.69.
As for TSAEIELPDVEPAAFLAFLRFLYS [L18F], the protein stability index was 1.73.
The value for TSAEIELPDVEPAAFLAWLRFLYS [L18W] was 2.2.
The value for TSAEIELPDVEPAAFLAQLRFLYS [L18Q] was 1.83.
Next, TSAEIELPDVEPAAFLAPLRFLYS [L18P]: 2.11; TSAEIELPDVEPAAFLARLRFLYS [L18R]: 2.03; TSAEIELPDVEPAAFLAELRFLYS [L18E]: 2.13.
For TSAEIELPDVEPAAFLAKLRFLYS [L18K], the protein stability index came to 1.95.
Next, TSAEIELPDVEPAAFLAVLRFLYS [L18V]: 1.37.
Consider TSAEIELPDVEPAAFLATLRFLYS [L18T], for which the protein stability index turned out to be 1.77.
Turning to TSAEIELPDVEPAAFLSLLRFLYS [A17S], the protein stability index is 1.93.
Next, TSAEIELPDVEPAAFLNLLRFLYS [A17N]: 2.06; TSAEIELPDVEPAAFLILLRFLYS [A17I]: 1.4; TSAEIELPDVEPAAFLMLLRFLYS [A17M]: 1.62.
For TSAEIELPDVEPAAFLYLLRFLYS [A17Y], the protein stability index amounted to 1.98.
The value for TSAEIELPDVEPAAFLDLLRFLYS [A17D] was 1.89.
Consider TSAEIELPDVEPAAFSALLRFLYS [L16S], for which the protein stability index was 1.69.
For the variant TSAEIELPDVEPAAFVALLRFLYS [L16V], the protein stability index amounted to 1.81.
Next, TSAEIELPDVEPAAFGALLRFLYS [L16G]: 1.64; TSAEIELPDVEPAAFRALLRFLYS [L16R]: 1.64.
The value for TSAEIELPDVEPAAFTALLRFLYS [L16T] was 1.87; that for TSAEIELPDVEPAAFQALLRFLYS [L16Q] was 2.31; that for TSAEIELPDVEPAAFAALLRFLYS [L16A] was 2.19.
The value for TSAEIELPDVEPAAFEALLRFLYS [L16E] was 2.06; that for TSAEIELPDVEPAAFFALLRFLYS [L16F] was 2.06; that for TSAEIELPDVEPAAFCALLRFLYS [L16C] was 1.99.
Consider TSAEIELPDVEPAAFLALLFFLYS [R20F], for which the protein stability index came out at 2.
Next, TSAEIELPDVEPAAFLALLDFLYS [R20D]: 1.38; TSAEIELPDVEPAAFLALLWFLYS [R20W]: 3.4.
The value for TSAEIELPDVEPAAFLALLCFLYS [R20C] was 1.19; that for TSAEIELPDVEPAAFLALLVFLYS [R20V] was 3.16.
In the case of TSAEIELPDVEPAAFLALLMFLYS [R20M], the protein stability index was determined as 2.54.
Next, TSAEIELPDVENAAFLALLRFLYS [P12N]: 1.95.
In the case of TSAEIELPDVEIAAFLALLRFLYS [P12I], the protein stability index was determined as 2.24.
The value for TSAEIELPDVECAAFLALLRFLYS [P12C] was 2.3.
The value for TSAEIELPDVEKAAFLALLRFLYS [P12K] was 1.61; that for TSAEIELPDVEWAAFLALLRFLYS [P12W] was 1.8; that for TSAEIELPDVEHAAFLALLRFLYS [P12H] was 2.15.
With TSAEIELPDVELAAFLALLRFLYS [P12L], the protein stability index stood at 1.67.
The value for TSAEIELPDVERAAFLALLRFLYS [P12R] was 1.93.
Next, TSAEIELPDVEMAAFLALLRFLYS [P12M]: 1.46; TSAEIELPDVMPAAFLALLRFLYS [E11M]: 1.32; TSAEIELPDVFPAAFLALLRFLYS [E11F]: 1.68.
The value for TSAEIELPDVPPAAFLALLRFLYS [E11P] was 1.98; that for TSAEIELPDVHPAAFLALLRFLYS [E11H] was 1.91.
For TSAEIELPDVQPAAFLALLRFLYS [E11Q], the protein stability index came to 1.56.
Next, TSAEIELPDVDPAAFLALLRFLYS [E11D]: 1.69.
The value for TSAEIELPDVYPAAFLALLRFLYS [E11Y] was 2.14.
The value for TSAEIELYDVEPAAFLALLRFLYS [P8Y] was 2.37; that for TSAEIELEDVEPAAFLALLRFLYS [P8E] was 2.17; that for TSAEIELSDVEPAAFLALLRFLYS [P8S] was 2.06.
With TSAEIELMDVEPAAFLALLRFLYS [P8M], the protein stability index was 1.9.
Next, TSAEIELNDVEPAAFLALLRFLYS [P8N]: 1.92.
TSAEIELDDVEPAAFLALLRFLYS [P8D]: the protein stability index was 1.95.
Next, TSAEIELPDMEPAAFLALLRFLYS [V10M]: 1.95; TSAEIELPDQEPAAFLALLRFLYS [V10Q]: 2.22.
For TSAEIELPDHEPAAFLALLRFLYS [V10H], the protein stability index was 1.65.
The value for TSAEIELPDYEPAAFLALLRFLYS [V10Y] was 1.78; that for TSAEIELPDGEPAAFLALLRFLYS [V10G] was 2.23.
With TSAEIELPDIEPAAFLALLRFLYS [V10I], the protein stability index is 1.8.
The value for TSAEIELPDTEPAAFLALLRFLYS [V10T] was 2.01.
As to TSAEIELPDCEPAAFLALLRFLYS [V10C], the protein stability index turned out to be 1.67.
The value for TSAEIELPDVEPAAFLALLRFLNS [Y23N] was 1.61; that for TSAEIELPDVEPAAFLALLRFLMS [Y23M] was 2.27; that for TSAEIELPDVEPAAFLALLRFLWS [Y23W] was 1.99.
The value for TSAEIELPDVEPAAFLALLRFLTS [Y23T] was 1.94; that for TSAEIELPDVEPAAFLALLRFLKS [Y23K] was 2.1; that for TSAEIELPDVEPAAFLALLRFLFS [Y23F] was 1.75.
With TSAEIELPDVEPAAFLALLRFLPS [Y23P], the protein stability index stood at 1.75.
Next, TSAEIELPDVEPAAFLALLRFLHS [Y23H]: 1.6.
The value for TSAEIELPDVEPAAFLALLRFLIS [Y23I] was 1.97; that for TSAEIELPDVEPAAFLALLRFLLS [Y23L] was 2.57.
Next, TSAEIELPDVEPAAFLALLRFIYS [L22I]: 1.75.
For the variant TSAEIELPDVEPAAFLALLRFKYS [L22K], the protein stability index stood at 1.91.
Next, TSAEIELPDVEPAAFLALLRFCYS [L22C]: 1.64; TSAEIELPDVEPAAFLALLRFRYS [L22R]: 1.26.
On to TSAEIELPDVEPAAFLALLRFAYS [L22A], for which the protein stability index is 1.71.
The value for TSAEIELPDVEPAAFLALLRFWYS [L22W] was 1.56.
The value for TSAEIELPDVEPAAFLALLRFMYS [L22M] was 2.23.
